The source of these data is the Human Domainome abundance scans (Beltran et al. 2025).

± gives the uncertainty stated by the source.

This data set is described as follows: abundance fitness (aPCA) (normalised: wild type 0, dead -1); higher = more abundant; growth selection in yeast, the domain comes from the species named. To be noted: Homo sapiens.
For “Lipoamide acyltransferase component of branched-chain alpha-keto acid dehydrogenase complex, mitochondrial I186P, P11182”, the abundance fitness is -0.918 ± 0.11.
Under “Lipoamide acyltransferase component of branched-chain alpha-keto acid dehydrogenase complex, mitochondrial I186R, P11182” stands -0.722 ± 0.049; under “Lipoamide acyltransferase component of branched-chain alpha-keto acid dehydrogenase complex, mitochondrial I186S, P11182”, -0.594 ± 0.064; under “Lipoamide acyltransferase component of branched-chain alpha-keto acid dehydrogenase complex, mitochondrial I186T, P11182”, -0.484 ± 0.091.
Under “Lipoamide acyltransferase component of branched-chain alpha-keto acid dehydrogenase complex, mitochondrial I186V, P11182” stands -0.046 ± 0.046.
Under “Lipoamide acyltransferase component of branched-chain alpha-keto acid dehydrogenase complex, mitochondrial I186W, P11182” stands -1.05 ± 0.094; under “Lipoamide acyltransferase component of branched-chain alpha-keto acid dehydrogenase complex, mitochondrial I200A, P11182”, -0.66 ± 0.048.
Take “Lipoamide acyltransferase component of branched-chain alpha-keto acid dehydrogenase complex, mitochondrial I200C, P11182”: the abundance fitness is -0.589 ± 0.062.
Under “Lipoamide acyltransferase component of branched-chain alpha-keto acid dehydrogenase complex, mitochondrial I200D, P11182” stands -0.567 ± 0.21.
Under “Lipoamide acyltransferase component of branched-chain alpha-keto acid dehydrogenase complex, mitochondrial I200E, P11182” stands -0.558 ± 0.072; under “Lipoamide acyltransferase component of branched-chain alpha-keto acid dehydrogenase complex, mitochondrial I200F, P11182”, -0.76 ± 0.097; under “Lipoamide acyltransferase component of branched-chain alpha-keto acid dehydrogenase complex, mitochondrial I200G, P11182”, -0.667 ± 0.045.
Substance “Lipoamide acyltransferase component of branched-chain alpha-keto acid dehydrogenase complex, mitochondrial I200H, P11182” gave an abundance fitness of -0.678 ± 0.089.
Under “Lipoamide acyltransferase component of branched-chain alpha-keto acid dehydrogenase complex, mitochondrial I200L, P11182” stands -0.334 ± 0.043; under “Lipoamide acyltransferase component of branched-chain alpha-keto acid dehydrogenase complex, mitochondrial I200M, P11182”, -0.563 ± 0.061; under “Lipoamide acyltransferase component of branched-chain alpha-keto acid dehydrogenase complex, mitochondrial I200N, P11182”, -0.711 ± 0.28.
Under “Lipoamide acyltransferase component of branched-chain alpha-keto acid dehydrogenase complex, mitochondrial I200P, P11182” stands -0.483 ± 0.05.
To “Lipoamide acyltransferase component of branched-chain alpha-keto acid dehydrogenase complex, mitochondrial I200Q, P11182” belongs -0.643 ± 0.07; to “Lipoamide acyltransferase component of branched-chain alpha-keto acid dehydrogenase complex, mitochondrial I200R, P11182”, -0.764 ± 0.045.
With “Lipoamide acyltransferase component of branched-chain alpha-keto acid dehydrogenase complex, mitochondrial I200S, P11182”, the abundance fitness was -0.76 ± 0.042.
To “Lipoamide acyltransferase component of branched-chain alpha-keto acid dehydrogenase complex, mitochondrial I200T, P11182” belongs -0.625 ± 0.06; to “Lipoamide acyltransferase component of branched-chain alpha-keto acid dehydrogenase complex, mitochondrial I200V, P11182”, -0.021 ± 0.039.
To “Lipoamide acyltransferase component of branched-chain alpha-keto acid dehydrogenase complex, mitochondrial I200W, P11182” belongs -0.852 ± 0.063; to “Lipoamide acyltransferase component of branched-chain alpha-keto acid dehydrogenase complex, mitochondrial I205A, P11182”, -0.356 ± 0.041; to “Lipoamide acyltransferase component of branched-chain alpha-keto acid dehydrogenase complex, mitochondrial I205C, P11182”, -0.16 ± 0.052.
Under “Lipoamide acyltransferase component of branched-chain alpha-keto acid dehydrogenase complex, mitochondrial I205E, P11182” stands -0.289 ± 0.047; under “Lipoamide acyltransferase component of branched-chain alpha-keto acid dehydrogenase complex, mitochondrial I205G, P11182”, -0.359 ± 0.037.
As to “Lipoamide acyltransferase component of branched-chain alpha-keto acid dehydrogenase complex, mitochondrial I205H, P11182”, the abundance fitness was -0.408 ± 0.064.
Under “Lipoamide acyltransferase component of branched-chain alpha-keto acid dehydrogenase complex, mitochondrial I205K, P11182” stands -0.302 ± 0.052.
To “Lipoamide acyltransferase component of branched-chain alpha-keto acid dehydrogenase complex, mitochondrial I205L, P11182” belongs -0.086 ± 0.037.
Under “Lipoamide acyltransferase component of branched-chain alpha-keto acid dehydrogenase complex, mitochondrial I205M, P11182” stands -0.28 ± 0.054.
Take “Lipoamide acyltransferase component of branched-chain alpha-keto acid dehydrogenase complex, mitochondrial I205N, P11182”: the abundance fitness was -0.551 ± 0.11.
Under “Lipoamide acyltransferase component of branched-chain alpha-keto acid dehydrogenase complex, mitochondrial I205Q, P11182” stands -0.302 ± 0.048; under “Lipoamide acyltransferase component of branched-chain alpha-keto acid dehydrogenase complex, mitochondrial I205R, P11182”, -0.343 ± 0.035; under “Lipoamide acyltransferase component of branched-chain alpha-keto acid dehydrogenase complex, mitochondrial I205S, P11182”, -0.332 ± 0.05.
Under “Lipoamide acyltransferase component of branched-chain alpha-keto acid dehydrogenase complex, mitochondrial I205T, P11182” stands -0.337 ± 0.057; under “Lipoamide acyltransferase component of branched-chain alpha-keto acid dehydrogenase complex, mitochondrial I205V, P11182”, 0.028 ± 0.042; under “Lipoamide acyltransferase component of branched-chain alpha-keto acid dehydrogenase complex, mitochondrial I205W, P11182”, -0.629 ± 0.056.
To “Lipoamide acyltransferase component of branched-chain alpha-keto acid dehydrogenase complex, mitochondrial I205Y, P11182” belongs -0.349 ± 0.15.
In turn, “Lipoamide acyltransferase component of branched-chain alpha-keto acid dehydrogenase complex, mitochondrial K187A, P11182” had an abundance fitness of -0.14 ± 0.04.
As for “Lipoamide acyltransferase component of branched-chain alpha-keto acid dehydrogenase complex, mitochondrial K187C, P11182”, the abundance fitness is -0.251 ± 0.099.
“Lipoamide acyltransferase component of branched-chain alpha-keto acid dehydrogenase complex, mitochondrial K187D, P11182” yielded an abundance fitness of 0.009 ± 0.048.
“Lipoamide acyltransferase component of branched-chain alpha-keto acid dehydrogenase complex, mitochondrial K187E, P11182” returned an abundance fitness of -0.133 ± 0.046.
To “Lipoamide acyltransferase component of branched-chain alpha-keto acid dehydrogenase complex, mitochondrial K187G, P11182” belongs -0.304 ± 0.036; to “Lipoamide acyltransferase component of branched-chain alpha-keto acid dehydrogenase complex, mitochondrial K187H, P11182”, -0.144 ± 0.057; to “Lipoamide acyltransferase component of branched-chain alpha-keto acid dehydrogenase complex, mitochondrial K187I, P11182”, -0.078 ± 0.076.
